The values below come from patent US20030104422A1.

The target of test [1] is human placental alkaline phosphatase (PLAP, Sigma) (human) (UniProt P05187). Kind of test: ELISA on coated hPLAP; mAb 64 ng/ml in PBS, undiluted.
Test [2] has the same target. Kind of test: ELISA on coated hPLAP; mAb 64 ng/ml in PBS, diluted 1:2. (In general: In an ELISA, binding on a coated surface is turned into a signal by an enzyme label.)
Test [3] shares this target. Kind of test: ELISA on coated hPLAP; mAb 64 ng/ml in PBS, diluted 1:4.
Test [4] has the same target. The test is described as follows: ELISA on coated hPLAP; mAb 64 ng/ml in PBS, diluted 1:8.
For test [5] the target is unchanged. Kind of test: ELISA on coated hPLAP; mAb 64 ng/ml in PBS, diluted 1:16.
For test [6] the target is unchanged. The test is described as follows: ELISA on coated hPLAP; mAb 64 ng/ml in PBS, diluted 1:32.
For test [7] the target is unchanged. Kind of test: ELISA on coated hPLAP; mAb 64 ng/ml in PBS, diluted 1:64.
Test [8] has the same target. Kind of test: ELISA on coated hPLAP; mAb 64 ng/ml spiked in negative serum, undiluted.
Test [9] has the same target. The test is described as follows: ELISA on coated hPLAP; mAb 64 ng/ml spiked in negative serum, diluted 1:2.
Test [10] has the same target. Kind of test: ELISA on coated hPLAP; mAb 64 ng/ml spiked in negative serum, diluted 1:4.
The target is the same in test [11]. The test is described as follows: ELISA on coated hPLAP; mAb 64 ng/ml spiked in negative serum, diluted 1:8.
Test [12] shares this target. The test is described as follows: ELISA on coated hPLAP; mAb 64 ng/ml spiked in negative serum, diluted 1:16.
Test [13] shares this target. The test is described as follows: ELISA on coated hPLAP; mAb 64 ng/ml spiked in negative serum, diluted 1:32.
For test [14] the target is unchanged. Kind of test: ELISA on coated hPLAP; mAb 64 ng/ml spiked in negative serum, diluted 1:64.
The target is the same in test [15]. The test is described as follows: ELISA on coated hPLAP; row labelled '0' (apparently no sample, background).

Several values for one entry are separate records, joined by “and”; a condition that tells them apart may be missing. Identical values can stand only once.

Chain of UniProt P05187 (P05187 23-506 limits assumed): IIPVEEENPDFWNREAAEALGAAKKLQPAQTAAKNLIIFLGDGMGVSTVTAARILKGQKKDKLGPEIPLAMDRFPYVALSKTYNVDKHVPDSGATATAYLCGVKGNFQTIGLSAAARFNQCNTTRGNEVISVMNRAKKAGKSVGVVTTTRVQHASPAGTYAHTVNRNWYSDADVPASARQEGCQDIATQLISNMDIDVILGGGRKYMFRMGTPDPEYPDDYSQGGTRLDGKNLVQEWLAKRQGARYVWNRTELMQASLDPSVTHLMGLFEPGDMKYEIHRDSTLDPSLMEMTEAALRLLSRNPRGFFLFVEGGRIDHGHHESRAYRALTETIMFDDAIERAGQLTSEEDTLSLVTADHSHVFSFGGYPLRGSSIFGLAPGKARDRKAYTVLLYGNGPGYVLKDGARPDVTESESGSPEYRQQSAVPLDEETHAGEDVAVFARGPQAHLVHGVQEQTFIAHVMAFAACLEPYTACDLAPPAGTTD

In the case of “mouse monoclonal antibody to PLAP (clone 8B6, Sigma Immunochemicals)”, the absorbance at 450 nm (absorbance at 450 nm) in [1] was 0.486; in [2] it was 0.487; in [3], 0.424; in test [4], 0.282; in test [5] it was 0.169; in test [6], 0.091. Moreover, the absorbance at 450 nm (absorbance at 450 nm) in test [7] is 0.047; in test [8] it was 0.546; in test [9] it was 0.439; in test [10] it was 0.341; in test [11], 0.209; in test [12], 0.123. Also, the absorbance at 450 nm (absorbance at 450 nm) was 0.071 in test [13]; 0.042 in [14]; 0.007 and 0.009 in test [15].

For “negative control serum (serum of mice injected with saline)”, the absorbance at 450 nm (absorbance at 450 nm) in test [15] was 0.005.
